# Laboratory results published in patent US9260505B2, “Methods for screening for binding partners of G-protein coupled receptors” (Heptares Therapeutics Limited, priority 2007, dated 2016).
# Positions count from the first letter of the chain named. Names and notes keep the numbering of the source. Values joined by “and” are separate entries in the source; they are usually repeats but may differ in a detail not shown here. Equal values may be shown once. Read-outs that look alike come from different tables or passages of the source.
# B1: Nag7m: rat neurotensin receptor mutant F358A+A86L+I260A+F342A (protein, UniProt P20789 1-424, looked up, variant F358A A86L I260A F342A)
# Neurotensin receptor type 1: MHLNSSVPQGTPGEPDAQPFSGPQSEMEATFLALSLSNGSGNTSESDTAGPNSDLDVNTDIYSKVLVTAIYLALFVVGTVGNSVTLFTLARKKSLQSLQSTVHYHLGSLALSDLLILLLAMPVELYNFIWVHHPWAFGDAGCRGYYFLRDACTYATALNVASLSVERYLAICHPFKAKTLMSRSRTKKFISAIWLASALLAIPMLFTMGLQNRSGDGTHPGGLVCTPIVDTATVKVVIQVNTFMSFLFPMLVISILNTVAANKLTVMVHQAAEQGRVCTVGTHNGLEHSTFNMTIEPGRVQALRHGVLVLRAVVIAFVVCWLPYHVRRLMFCYISDEQWTTALFDFYHYFYMLTNALAYVSSAINPILYNLVSANFRQVFLSTLACLCPGWRHRRKKRPTFSRKPNSMSSNHAFSTSATRETLY
# B2: Nag7n: rat neurotensin receptor mutant F358A+H103A+I260A+F342A (protein, UniProt P20789 1-424, looked up, variant F358A H103A I260A F342A)
# Neurotensin receptor type 1: B1 Neurotensin receptor type 1 with L86A, H103A
# B3: Rant17: A2aR mutant A54L + K122A + L235A (protein, UniProt P29274 1-412, looked up, variant A54L K122A L235A)
# Adenosine receptor A2a: MPIMGSSVYITVELAIAVLAILGNVLVCWAVWLNSNLQNVTNYFVVSLAAADILVGVLAIPFAITISTGFCAACHGCLFIACFVLVLTQSSIFSLLAIAIDRYIAIRIPLRYNGLVTGTRAAGIIAICWVLSFAIGLTPMLGWNNCGQPKEGKNHSQGCGEGQVACLFEDVVPMNYMVYFNFFACVLVPLLLMLGVYLRIFLAARRQLKQMESQPLPGERARSTLQKEVHAAKSAAIIVGLFALCWLPLHIINCFTFFCPDCSHAPLWLMYLAIVLSHTNSVVNPFIYAYRIREFRQTFRKIIRSHVLRQQEPFKAAGTSARVLAAHGSDGEQVSLRLNGHPPGVWANGSAPHPERRPNGYALGLVSGGSAQESQGNTGLPDVELLSHELKGVCPEPPGLDDPLAQDGAGVS
# B4: Rant19: A2aR mutant A54L, T88A, V239A + A204L (protein, UniProt P29274 1-412, looked up, variant A54L T88A V239A A204L)
# Adenosine receptor A2a: B3 Adenosine receptor A2a with T88A, A122K, A204L, A235L, V239A
# B5: Rant21: A2aR mutant A54L, T88A, V239A + K122A (protein, UniProt P29274 1-412, looked up, variant A54L T88A V239A K122A)
# Adenosine receptor A2a: B3 Adenosine receptor A2a with T88A, A235L, V239A
# B6: Rag 1: A2aR mutant A184L/R199A/L272A (protein, UniProt P29274 1-412, looked up, variant A184L R199A L272A)
# Adenosine receptor A2a: B3 Adenosine receptor A2a with L54A, A122K, A184L, R199A, A235L, L272A
# B7: Rant 5: A2aR mutant A54L/T88A/V239A (protein, UniProt P29274 1-412, looked up, variant A54L T88A V239A)
# Adenosine receptor A2a: B3 Adenosine receptor A2a with T88A, A122K, A235L, V239A
# Experiments:
# [1] = Thermostability of detergent-solubilised βAR34-424 and mutants ([3H]-DHA binding after heating 30 min)
# Protocol: Binding assays were performed using [^3H]-dihydroalprenolol (DHA) as radioligand as described under “Methods”. Samples were heated for 30 minutes at different temperatures before the assay. […] Data points are from duplicates of one single experiment.
# Single point binding assays contained 20 mM Tris pH 8, 0.4 M NaCl, 1 mM EDTA, 0.1% DDM (or corresponding detergent) with 50 nM [^3H]-DHA and 20-100 μg membrane protein in a final volume of 120 μl; equilibration was for 1 h at 4° C. Thermostability was assessed by incubating the binding assay mix, with or without [^3H]-DHA at the specified temperature for 30 minutes; reactions were placed on ice and [^3H]-DHA added as necessary and equilibrated for a further hour. Receptor-bound and free radioligand were separated by gel filtration as described previously[18]. […] Radioactivity was counted on a Beckman LS6000 liquid scintillation counter and data were analyzed by nonlinear regression using Prism software (GraphPad).
# [2] = Thermostability of β adrenergic receptors expressed in mammalian cells, minus-ligand format (FIG. 26); settings: 0.1% dodecylmaltoside, apo-state heated, 3H-DHA
# Description: The resulting mutants were transiently expressed in mammalian cells, solubilised in 0.1% dodecylmaltoside and assayed for thermostability in the minus-ligand format (heating the apo-state, quenching on ice, adding 3H-DHA).
# β1AR36-M23 = target: T1, β1AR36-M23 (Meleagris gallopavo, UniProt P07700, A282L/C116L/C358A/DEL244-271/DEL277-278/F327A/F338M/M90V/R68S/Y227A); test: biochemical; type: binding, turkey; settings: for kd: 10° C., footnote 1 averaged from two b1AR surfaces, footnote 2 preliminary results
# T1 construct: beta-36 construct (amino acid residues 34-367 of the turkey beta receptor containing the following changes); His6 (C); made in house; host or cells: insect cells, baculovirus (stated for the beta-36 construct in the crystallisation text)
# T1 sequence (P07700 other isoform, or with tags, fused parts or gaps with the stated changes): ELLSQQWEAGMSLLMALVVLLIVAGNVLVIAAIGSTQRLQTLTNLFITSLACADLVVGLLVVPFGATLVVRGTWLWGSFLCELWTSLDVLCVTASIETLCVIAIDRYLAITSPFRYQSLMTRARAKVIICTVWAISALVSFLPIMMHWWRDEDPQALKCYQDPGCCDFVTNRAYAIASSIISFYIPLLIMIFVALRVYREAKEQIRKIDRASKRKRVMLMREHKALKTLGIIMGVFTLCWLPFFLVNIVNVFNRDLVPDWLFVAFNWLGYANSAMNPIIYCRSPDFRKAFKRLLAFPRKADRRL
# Protocol: Binding studies were performed at 10° C. using a Biacore S51 optical biosensor equipped with a streptavidin-coated CM5 chip and equilibrated with running buffer (20 mM trisHCl, 150 mM NaCl, 1 mM EDTA, 1% DMSO, 0.1% decyl maltoside, pH 7.8).
# Flow through of the compound allowed the on rate to be determined. Subsequent washing enabled determination of the off rate. These parameters could then be used to determine a kinetic affinity measurement (Kd).
# [3] = Thermostability of neurotensin receptor and mutants (3H-neurotensin binding); type: physicochemical; settings: neurotensin bound
# Protocol: • 1. 340 site-directed mutants have been made between residues 61-400 of NTR. • 2. Initially, all of these mutants were assayed for thermostability using an assay measuring ^3H-neurotensin (agonist) binding after the heating step. […] Mutants tested for thermostability by heating in the absence of the agonist were re-tested using a slightly different assay where the mutants were heated in the presence of ^3H-neurotensin (Ligand(+) format in FIG. 12). […] All of these also have increased thermostability. • 5. Preferred combinations are • a. Nag7m F358A+A86L+I260A+F342A Tm 51° C. (neurotensin bound) • b. Nag7n F358A+H103A+I260A+F342A Tm 51° C. (neurotensin bound)
# [4] = Thermostability of solubilised adenosine A2a receptor and mutants; type: physicochemical; settings: for Tm + agonist / Tm + antagonist / Tm − agonist / Tm − antagonist: 1% DDM, no glycerol; for Tm + agonist: agonist-occupied; for Tm + antagonist: antagonist-occupied; for Tm − agonist / Tm − antagonist: apo-state; for Tm: ZM241385 bound
# Protocol: • 1. 315 site-directed mutants made between residues 2-316 of A2aR. • 2. All of these mutants have been assayed for thermostability using an assay measuring agonist and antagonist binding after the heating step (Ligand(−) format as described in FIG. 12). • a. […] Mutations have been combined to generate mutants in a putative antagonist conformation. Wildtype A2aR has a Tm of 31° C. with ZM241385 bound.
# βAR-m23 = βAR-m23 (Meleagris gallopavo, UniProt P07700, A282L/C116L/F327A/F338M/M90V/R68S/Y227A); type: binding, turkey
# βAR-m23, sequence (P07700 34-424 R68S/M90V/C116L/Y227A/A282L/F327A/F338M): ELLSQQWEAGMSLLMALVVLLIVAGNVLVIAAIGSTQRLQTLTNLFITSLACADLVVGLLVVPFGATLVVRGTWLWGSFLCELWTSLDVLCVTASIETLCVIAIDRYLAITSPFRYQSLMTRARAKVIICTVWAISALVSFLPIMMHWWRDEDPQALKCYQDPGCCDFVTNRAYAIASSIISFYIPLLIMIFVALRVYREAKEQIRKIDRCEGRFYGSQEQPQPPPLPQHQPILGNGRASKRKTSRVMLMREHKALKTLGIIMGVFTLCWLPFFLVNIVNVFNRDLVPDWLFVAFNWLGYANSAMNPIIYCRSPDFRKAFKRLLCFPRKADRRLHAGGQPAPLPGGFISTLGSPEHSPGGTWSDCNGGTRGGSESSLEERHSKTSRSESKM
# A2aR mutant Rag 23 = settings: detergent-solubilised
# [5] = apo-state heated 30 min, E. coli expressed, DDM-solubilised, mean ± S.E. from duplicates
molecule,measurement,setting,value
"m20: βAR34-424 mutant R68S, M90V, F327A, A334L",Tm,[1]; [5],48.4 ± 0.7 °C
"m7-1: βAR34-424 mutant M90V, A282L, F338M",Tm,[1]; [5],43.0 ± 0.8 °C
turkey β1: turkey β1 adrenergic receptor transiently expressed in mammalian cells,apparent Tm,[2],23 °C
OCc1cc(C(O)CNCCCCCCOCCCCc2ccccc2)ccc1O (centres unmarked) [Salmeterol],Kd,β1AR36-M23,2500 ± 300 nM
same,kd,β1AR36-M23,(9.5 ± 0.4) × 10^−2 s^−1
same,binding strength compared with alprenolol or propranolol,β1AR36-M23; in words,bound the receptor much more weakly
same,dissociation rate compared with the other compounds,β1AR36-M23; in words,dissociated much faster
Wildtype NTR: wild-type neurotensin receptor [reference compound],Tm,[3],35 °C
human β1: human β1 adrenergic receptor,apparent Tm,[2],~12 °C
wt: wild-type human adenosine A2a receptor [reference compound],"Tm, Agonist-binding",[4]; 0.003% LDAO,28 °C
same,"Tm, Antagonist-binding",[4]; 0.003% LDAO,32 °C
same,"Tm, Agonist-binding",[4]; 0.006% FC12,37 °C
same,"Tm, Antagonist-binding",[4]; 0.006% FC12,43 °C
same,"Tm, Agonist-binding",[4]; 0.01% DDM,27 °C
same,"Tm, Antagonist-binding",[4]; 0.01% DDM,25 °C
same,"Tm, Agonist-binding",[4]; 0.1% DM,23 °C
same,"Tm, Antagonist-binding",[4]; 0.1% DM,10 °C
same,"Tm, Agonist-binding",[4]; 0.3% NM,22 °C
same,"Tm, Antagonist-binding",[4]; 0.3% NM,<4 °C
same,"Tm, Agonist-binding",[4]; 0.6% OG,<9 °C
same,Tm + agonist,[4],29 °C
same,Tm + antagonist,[4],32 °C
same,Tm − agonist,[4],21 °C
same,Tm − antagonist,[4],31 °C
same,Tm,[4],31 °C
"m6-4: βAR34-424 mutant R68S, Y227A, A234L, A282L",Tm,[1]; [5],41.6 ± 0.1 °C
"m10-4: βAR34-424 mutant R68S, M90V, V230A, A334L",Tm,[1]; [5],46.9 ± 1.0 °C
"m6-5: βAR34-424 mutant R68S, A234L, A282L, A334L",Tm,[1]; [5],41.9 ± 0.5 °C
C=CCc1ccccc1OC[C@@H](O)CNC(C)C [alprenolol],Kd,β1AR36-M23,44 ± 1 nM
same,kd,β1AR36-M23,(6.3 ± 0.1) × 10^−3 s^−1
"1-[4,6-propyl-^3H]-dihydroalprenolol [[^3H]-dihydroalprenolol]",Kd,"βAR-m23; membranes, n=2",6.5 ± 0.2 nM
same,Kd,βAR-m23; semipurified receptor,12.5 nM
"m7-7: βAR34-424 mutant M90V, Y227A, F338M",Tm,[1]; [5],45.2 ± 2.0 °C
"m6-9: βAR34-424 mutant R68S, Y227A, A234L, A282L, A334L",Tm,[1]; [5],43.7 ± 0.4 °C
"m6-10: βAR34-424 mutant R68S, Y227A, A282L, A334L",Tm,[1]; [5],47.4 ± 1.1 °C
CCNC(=O)[C@H]1O[C@@H](n2cnc3c(N)ncnc32)[C@H](O)[C@@H]1O [[^3H]NECA],Kd,A2aR mutant Rag 23,21 ± 1 nM
"m23: βAR34-424 mutant R68S, M90V, Y227A, A282L, F327A, F338M",Tm,"[1]; Ni-NTA partially purified, in DDM",52 °C
same,Tm,"[1]; Ni-NTA partially purified, in DM",48 °C
same,Tm,"[1]; Ni-NTA partially purified, in LDAO",23 °C
same,Tm,"[1]; Ni-NTA partially purified, in NG",25 °C
same,Tm,"[1]; Ni-NTA partially purified, in OG",17 °C
same,Tm with antagonist bound,[1]; [3H]-DHA bound during heating,55 °C
same,increase in Tm with bound antagonist,[1]; antagonist bound versus without antagonist,2 °C
same,Tm,[1]; [5],52.8 °C and 52.8 ± 1.4 °C
B1,Tm,[3],51 °C
B2,Tm,[3],51 °C
B3,Tm,[4],Tm 48 °C (ZM241385 bound)
B4,Tm,[4],Tm 47 °C (ZM241385 bound)
B5,"Tm, Antagonist-binding",[4]; 0.003% LDAO,42 °C
same,"Tm, Antagonist-binding",[4]; 0.006% FC12,49 °C
same,"Tm, Antagonist-binding",[4]; 0.01% DDM,39 °C
same,"Tm, Antagonist-binding",[4]; 0.1% DM,28 °C
same,"Tm, Antagonist-binding",[4]; 0.3% NG,22 °C
same,"Tm, Antagonist-binding",[4]; 0.3% NM,25 °C
same,"Tm, Antagonist-binding",[4]; 0.6% OG,23 °C
same,Tm + antagonist,[4],49 °C
same,Tm − antagonist,[4],41 °C
same,Tm,[4],Tm 49 °C (ZM241385 bound)
B6,Tm + agonist,[4],34 °C
same,Tm − agonist,[4],26 °C
B7,Tm + antagonist,[4],46 °C
same,Tm − antagonist,[4],42 °C
